Entries after “also recorded” stand apart in the source; their conditions may differ. Each block holds one molecule with its values, some of them ahead of it. Positions of bridges follow the written chain, without caps; N, C: chain ends.
How the values were obtained:
[1] = target: T1, Dkk1 binding to LRP6 E1E2 (Homo sapiens, UniProt O75581); test: Peptide inhibition of Dkk1 binding to LRP6 E1E2 (biolayer interferometry); settings: peptide 20-fold higher than IC50; ligand three-fold higher than dissociation constant
T1 construct: construct E1E2-amino acids A20-E631 of LPR6; made in house; host or cells: Tni insect cells (baculovirus, secreted)
T1 sequence (O75581 20-631): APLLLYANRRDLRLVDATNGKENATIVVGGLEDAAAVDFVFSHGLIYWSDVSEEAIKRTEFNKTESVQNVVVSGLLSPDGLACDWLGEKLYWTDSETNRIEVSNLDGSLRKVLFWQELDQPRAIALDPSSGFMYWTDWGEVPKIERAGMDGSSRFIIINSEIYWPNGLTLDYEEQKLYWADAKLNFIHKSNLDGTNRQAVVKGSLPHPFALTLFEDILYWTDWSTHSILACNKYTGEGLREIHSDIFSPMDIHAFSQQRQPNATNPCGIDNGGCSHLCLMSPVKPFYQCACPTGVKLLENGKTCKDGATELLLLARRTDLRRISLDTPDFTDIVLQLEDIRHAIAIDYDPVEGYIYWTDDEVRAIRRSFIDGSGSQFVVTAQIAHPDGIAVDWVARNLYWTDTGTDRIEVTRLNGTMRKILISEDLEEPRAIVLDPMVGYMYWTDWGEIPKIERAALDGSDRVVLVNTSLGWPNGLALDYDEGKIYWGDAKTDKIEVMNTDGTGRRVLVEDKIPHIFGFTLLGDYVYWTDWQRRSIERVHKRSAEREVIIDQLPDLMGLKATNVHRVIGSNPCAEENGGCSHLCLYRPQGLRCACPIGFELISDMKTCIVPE
Experimental: (§1) FIG. 22. […] Binding was assessed by biolayer interferometry, as described in Example 1. Immobilized LRP6 E1E2 was exposed to protein ligand (Wnt 9b, Dkk1, or sclerostin) present in solution at a concentration three-fold higher than the measured dissociation constant for E1E2. Competing peptides were added at a saturating level (20-fold higher than the measured IC50 value). Peptide A: Ac-NSNAIKN-am; Peptide B: Ac-[…]-am (disulfide); Peptide C: Ac-[…]-am (disulfide)
(§2) Binding kinetics were measured by biolayer interferometry using an Octet Red instrument (ForteBio) as previously described (11). Streptavidin (SA) biosensors were loaded with biotinylated hLRP6 in 50 mMTris, pH 8, 300 mM NaCl, 5% (v/v) glycerol, and 0.05% (w/v) Triton X-100. The loaded biosensors were washed in the same buffer before carrying out association and dissociation measurements for the indicated times. The Kd of each interaction was determined using steady state-analysis through the Octet Red software v6.3. Each reported value represents an average of three or more experiments at different concentrations, with a fitted experimental curve for which the square of the correlation coefficient (R^2) is above 0.96.
(§3) To support the conclusions from protein mutagenesis, peptides were assayed for inhibitory activity toward binding of various ligands to LRP6. Three different peptides inhibited binding of the inhibitors Dkk1 and sclerostin to LRP6 E1E2 without affecting the binding of Wnt9B (FIG. 22).

[2] = target: T2, sclerostin binding to LRP6 E1E2 (Homo sapiens, UniProt O75581); test: Peptide inhibition of sclerostin binding to LRP6 E1E2 (biolayer interferometry); settings: peptide 20-fold higher than IC50; ligand three-fold higher than dissociation constant
T2 construct: construct E1E2-amino acids A20-E631 of LPR6; made in house; host or cells: Tni insect cells (baculovirus, secreted)
T2 sequence (O75581 20-631): T1 sequence (O75581 20-631)
Experimental: as §1, §2, §3

[3] = target: T3, human LRP6 construct E3E4 (amino acids E631-Q1253) (human, UniProt O75581 631-1253, biotinylated for biolayer interferometry); test: BLI (Octet Red), biotinylated LRP6 on streptavidin tips, steady state
T3 construct: range 631-1253; also called LRP6 E3E4
T3 sequence (looked up): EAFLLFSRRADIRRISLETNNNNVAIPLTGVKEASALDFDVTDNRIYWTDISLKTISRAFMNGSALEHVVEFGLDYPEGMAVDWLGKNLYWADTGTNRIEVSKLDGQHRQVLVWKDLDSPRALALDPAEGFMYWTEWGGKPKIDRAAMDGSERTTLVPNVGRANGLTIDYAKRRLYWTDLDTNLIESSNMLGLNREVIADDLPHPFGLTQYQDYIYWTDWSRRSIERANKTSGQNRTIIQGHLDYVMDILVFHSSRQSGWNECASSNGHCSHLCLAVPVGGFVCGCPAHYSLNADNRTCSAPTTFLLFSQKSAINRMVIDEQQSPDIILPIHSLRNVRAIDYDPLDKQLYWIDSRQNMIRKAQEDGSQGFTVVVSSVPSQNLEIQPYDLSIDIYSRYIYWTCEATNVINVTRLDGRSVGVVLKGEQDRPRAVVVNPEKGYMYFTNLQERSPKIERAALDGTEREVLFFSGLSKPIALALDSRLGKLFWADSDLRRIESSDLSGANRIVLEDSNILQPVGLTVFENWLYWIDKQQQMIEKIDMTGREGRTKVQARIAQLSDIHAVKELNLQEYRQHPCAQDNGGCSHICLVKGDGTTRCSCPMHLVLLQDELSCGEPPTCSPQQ
Experimental: as §2, with “(R²)” for “(R^2)”

[4] = target: T4, human LRP6 construct E1E2 (amino acids A20-E631) (human, UniProt O75581 20-631, biotinylated for biolayer interferometry); test: as above
T4 construct: range 20-631; also called LRP6 E1E2
T4 sequence (looked up): T1 sequence (O75581 20-631)
Experimental: as §2, with “(R²)” for “(R^2)”

LRP6 E3E4 = target: T5, LRP6 E3E4 (Homo sapiens, UniProt O75581); test: Biolayer interferometry binding to LRP6 E3E4
T5 construct: construct E3E4 amino acids E631-Q1253 of LPR6; made in house; host or cells: Tni insect cells (baculovirus, secreted)
T5 sequence (O75581 631-1253): T3 sequence (looked up)
Experimental: as §2
(§4) The interaction of the different Dkks and sclerostin with various domains of LRP6 was measured using a biolayer interferometry assay (11). Purified receptors contained individual β-propeller-EGF-like units (E1, E2, or E4), two β-propellers (E1E2 or E3E4), or four β-propellers (E1E4))—as follows:
(§5) Human LRP6: construct E1E4-amino acids A20-Q1253 of LPR6; construct E1E2-amino acids A20-E631 of LPR6; construct E3E4 amino acids E631-Q1253 of LPR6; construct E1-amino acids A20-D325 of LPR6; construct E2-amino acids […]-E631 of LPR6; construct E4-T933-Q1253. The individual LRP6 β-propeller E3 could not be expressed.

LRP6 E1E4 = target: T6, LRP6 E1E4 (Homo sapiens, UniProt O75581); test: Biolayer interferometry binding to LRP6 E1E4
T6 construct: construct E1E4-amino acids A20-Q1253 of LPR6; made in house; host or cells: Tni insect cells (baculovirus, secreted)
T6 sequence (O75581 20-1253): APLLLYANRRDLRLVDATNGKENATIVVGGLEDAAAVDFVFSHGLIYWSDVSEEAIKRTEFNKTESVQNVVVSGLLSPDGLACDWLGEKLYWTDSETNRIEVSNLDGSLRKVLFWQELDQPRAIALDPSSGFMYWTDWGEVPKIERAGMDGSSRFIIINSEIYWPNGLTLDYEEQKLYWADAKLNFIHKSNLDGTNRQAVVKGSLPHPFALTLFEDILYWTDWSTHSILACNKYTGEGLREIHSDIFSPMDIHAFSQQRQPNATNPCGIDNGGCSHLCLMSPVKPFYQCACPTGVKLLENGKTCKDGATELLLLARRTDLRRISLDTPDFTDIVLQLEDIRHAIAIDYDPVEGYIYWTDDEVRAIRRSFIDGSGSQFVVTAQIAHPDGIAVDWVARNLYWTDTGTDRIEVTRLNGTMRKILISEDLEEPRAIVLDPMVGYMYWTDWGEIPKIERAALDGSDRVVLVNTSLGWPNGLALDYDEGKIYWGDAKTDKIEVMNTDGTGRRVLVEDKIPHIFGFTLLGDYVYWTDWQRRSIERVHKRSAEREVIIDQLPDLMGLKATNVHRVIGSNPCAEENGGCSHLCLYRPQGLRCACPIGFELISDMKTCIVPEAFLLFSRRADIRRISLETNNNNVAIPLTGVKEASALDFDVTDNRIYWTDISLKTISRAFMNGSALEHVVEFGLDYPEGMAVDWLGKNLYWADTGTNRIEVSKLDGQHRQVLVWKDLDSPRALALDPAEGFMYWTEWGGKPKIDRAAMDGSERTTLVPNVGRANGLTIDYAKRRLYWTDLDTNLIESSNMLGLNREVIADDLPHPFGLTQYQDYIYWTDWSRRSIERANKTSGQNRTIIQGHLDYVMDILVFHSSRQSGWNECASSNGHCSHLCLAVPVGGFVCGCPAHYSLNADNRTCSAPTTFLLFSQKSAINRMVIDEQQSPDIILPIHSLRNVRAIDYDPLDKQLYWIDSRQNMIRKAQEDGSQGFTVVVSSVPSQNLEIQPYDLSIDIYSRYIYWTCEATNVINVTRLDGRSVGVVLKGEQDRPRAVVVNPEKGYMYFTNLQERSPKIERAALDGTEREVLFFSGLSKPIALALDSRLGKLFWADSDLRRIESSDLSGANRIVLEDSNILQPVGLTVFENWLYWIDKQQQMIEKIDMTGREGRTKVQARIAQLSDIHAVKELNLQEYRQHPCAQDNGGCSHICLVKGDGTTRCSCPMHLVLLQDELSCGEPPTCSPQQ
Experimental: as §2, §4, §5

[5] = target: T7, human LRP6 construct E1E4 (amino acids A20-Q1253) (human, UniProt O75581 20-1253, biotinylated for biolayer interferometry); test: BLI (FIG. 9B)
T7 construct: range 20-1253; Expressed in Tni insect cells; tags not specified for this construct; also called LRP6 E1E4
T7 sequence (looked up): T6 sequence (O75581 20-1253)
Experimental: as §2, with “(R²)” for “(R^2)”

[6] = target: T4, human LRP6 construct E1E2 (amino acids …); test: BLI (FIG. 9B)
Experimental: as §2, with “(R²)” for “(R^2)”

Molecule: Ac-CNSIKFCG-am (disulfide) (Ac-CNSIKFCG-NH2; disulfide 1-7 (inferred)) [Peptide B]
- inhibition of Dkk1 binding to LRP6 E1E2 [1]: inhibit binding
- inhibition of sclerostin binding to LRP6 E1E2 [2]: inhibit binding

Molecule: Ac-NSNAIKN-am (Ac-NSNAIKN-NH2) [Peptide A]
- inhibition of Dkk1 binding to LRP6 E1E2 [1]: inhibit binding
- inhibition of sclerostin binding to LRP6 E1E2 [2]: inhibit binding

B1: Dkk2 (ligand)
chain: KLNSIKSSLGGETPAQSANRSAGMNQGLAFGGSKKGKSLGQAYPCSSDKECEVGRYCHSPHQGSSACMLCRRKKKRCHRDGMCCPGTRCNNGICIPVTESILTPHIPALDGTRHRDRNHGHYSNHDLGWQNLGRPHSKMPHIKGHEGDPCLRSSDCIDGFCCARHFWTKICKPVLHQGEVCTKQRKKGSHGLEIFQRCDCAKGLSCKVWKDATYSSKARLHVCQKI
- Kd [3]: 38 nM
- Kd [4]: 53 nM

More lines, main results first:

- inhibition of Dkk1 binding to LRP6 E1E2 [1]: inhibit binding
- inhibition of sclerostin binding to LRP6 E1E2 [2]: inhibit binding
Molecule: Ac-GSLCSNRIKPDTHCSS-am (disulfide) (Ac-GSLCSNRIKPDTHCSS-NH2; disulfide 4-14 (inferred)) [Peptide C]

- binding to LRP6 E1E4 (in words) (LRP6 E1E4): retain binding
- binding result [5]: binds
- binding result [6]: binds
B2: Dkk1 H204E (ligand, human, UniProt O94907 32-266, looked up)
chain: TLNSVLNSNAIKNLPPPLGGAAGHPGSAVSAAPGILYPGGNKYQTIDNYQPYPCAEDEECGTDEYCASPTRGGDAGVQICLACRKRRKRCMRHAMCCPGNYCKNGICVSSDQNHFRGEIEETITESFGNDHSTLDGYSRRTTLSSKMYHTKGQEGSVCLRSSDCASGLCCAREFWSKICKPVLKEGQVCTKHRRKGSHGLEIFQRCYCGEGLSCRIQKDHHQASNSSRLHTCQRH
- binding to LRP6 E3E4 (in words) (LRP6 E3E4): interfered with binding; also recorded: affect binding

Reference: patent publication US20140235820A1, “METHODS AND COMPOSITIONS FOR MODULATING THE Wnt PATHWAY” (Genentech, Inc., priority 2010, published 2014)
